Experimental data: PMC10145556

Molecular target: T1, LHRH receptor (LHRH-R) (human (endogenous in MCF-7 and Hs68)) (UniProt P30968)
T1 sequence: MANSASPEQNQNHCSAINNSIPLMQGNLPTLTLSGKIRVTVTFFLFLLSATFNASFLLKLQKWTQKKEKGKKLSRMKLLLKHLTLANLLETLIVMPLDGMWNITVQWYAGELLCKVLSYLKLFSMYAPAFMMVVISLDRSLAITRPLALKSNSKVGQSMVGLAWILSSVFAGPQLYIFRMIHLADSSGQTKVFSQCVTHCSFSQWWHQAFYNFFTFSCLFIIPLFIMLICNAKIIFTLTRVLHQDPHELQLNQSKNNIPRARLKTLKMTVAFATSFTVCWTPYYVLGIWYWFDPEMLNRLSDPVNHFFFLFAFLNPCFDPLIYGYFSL

B1: LHRH-BinBC (luteinizing hormone-releasing hormone peptide fused through a GSG linker to the N-terminus of the pore-forming C-terminal domain of BinB) (protein)
chain: QHWSYGLRPGGSGIPQLPQTSLLENIPEPTSLDDSGVLPKDAVRAVKGSALLPCIIVHDPNLNNSDKMKFNTYYLLEYKEYWHQLWSQIIPAHQTVKIQERTGISEVVQNSMIEDLNMYIGADFGMLFYFRSSGFKEQITRGLNRPLSQTTTQLGERVEEMEYYNSNDLDVRYVKYALAREFTLKRVNGEIVKNWVAVDYRLAGIQSYPNAPITNPLTLTKHTIIRCENSYDGHIFKTPLIFKNGEVIVKTNEELIPKINQ
  IC50 of inhibition of MCF-7 cell proliferation (MTT assay, 48 h, 1-16 μM LHRH-BinBC): 11 µM
